Results reported in the supplement of paper PMC5998384.

Tests used:
[1] = test system: HeLa Kyoto; test: solubility in G1/S (NP-40 vs SDS abundance) (log2 ratio); higher = more soluble; conditions: cell cycle stage: G1/S
[2] = test system: HeLa Kyoto; test: thermal stability score vs G1/S (z-score of summed log2 fold changes over temperatures); higher = more thermally stable than in G1/S
[3] = test system: HeLa Kyoto; test: melting temperature (median over replicates), in situ; higher = more thermally stable
[4] = test system: HeLa Kyoto; test: solubility change mitosis vs G1/S (difference of NP-40 vs SDS log2 ratios) (log2 ratio difference); higher = more soluble in mitosis
[5] = cell cycle stage: early G1 (4.5 h after nocodazole release)
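Wherever melting temperature (median over replicates), in situ is given: HeLa Kyoto cells synchronized by double thymidine or nocodazole block, proteins quantified by TMT10plex mass spectrometry, three independent biological replicates.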
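Wherever solubility change mitosis vs G1/S (difference of NP-40 vs SDS log2 ratios) is given: synchronized HeLa Kyoto cells (double thymidine block for G1/S, nocodazole release for mitosis), protein amounts in NP-40 versus SDS lysates quantified by mass spectrometry, three biological replicates.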
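Wherever solubility in G1/S (NP-40 vs SDS abundance) is given: HeLa Kyoto cells arrested at G1/S by double thymidine block, proteins quantified by TMT10plex mass spectrometry in mild NP-40 versus SDS extracts, three biological replicates.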
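Wherever thermal stability score vs G1/S (z-score of summed log2 fold changes over temperatures) is given: synchronized HeLa Kyoto cells, proteins quantified by TMT10plex mass spectrometry, three biological replicates, mitosis taken 0.5 h after nocodazole release, G1/S directly after double thymidine block.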

Row | Sequence | solubility in G1/S (log2) [1] | thermal stability score [2, 5] | thermal stability score ([2]; cell cycle stage: mitosis) | melting temperature ([3]; cell cycle stage: G1/S) [°C] | melting temperature ([3]; cell cycle stage: mitosis) [°C] | solubility change mitosis (log2) [4]
1 | MADEDLIFRLEGVDGGQSPRAGHDGDSDGDSDDEEGYFICPITDDPSSNQNVNSKVNKYYSNLTKSERYSSSGSPANSFHFKEAWKHAIQKAKHMPDPWAEFHLEDIATERATRHRYNAVTGEWLDDEVLIKMASQPFGRGAMRECFRTKKLSNFLHAQQWKGASNYVAKRYIEPVDRDVYFEDVRLQMEAKLWGEEYNRHKPPKQVDIMQMCIIELKDRPGKPLFHLEHYIEGKYIKYNSNSGFVRDDNIRLTPQAFSHFTFERSGHQLIVVDIQGVGDLYTDPQIHTETGTDFGDGNLGVRGMALFFYSHACNRICESMGLAPFDLSPRERDAVNQNTKLLQSAKTILRGTEEKCGSPQVRTLSGSRPPLLRPLSENSGDENMSDVTFDSLPSSPSSATPHSQKLDHLHWPVFSDLDNMASRDHDHLDNHRESENSGDSGYPSEKRGELDDPEPREHGHSYSNRKYESDEDSLGSSGRVCVEKWNLLNSSRLHLPRASAVALEVQRLNALDLEKKIGKSILGKVHLAMVRYHEGGRFCEKGEEWDQESAVFHLEHAANLGELEAIVGLGLMYSQLPHHILADVSLKETEENKTKGFDYLLKAAEAGDRQSMILVARAFDSGQNLSPDRCQDWLEALHWYNTALEMTDCDEGGEYDGMQDEPRYMMLAREAEMLFTGGYGLEKDPQRSGDLYTQAAEAAMEAMKGRLANQYYQKAEEAWAQMEE [EEF2K] | 0.0328 | 0.84 | 1.21 | 47.7 | 48.4 | -0.158
2 | MADEIAKAQVARPGGDTIFGKIIRKEIPAKIIFEDDRCLAFHDISPQAPTHFLVIPKKHISQISVAEDDDESLLGHLMIVGKKCAADLGLNKGYRMVVNEGSDGGQSVYHVHLHVLGGRQMHWPPG [HINT1] | 0.25 | -5.39 | -4.12 | 56.4 | 56 | 0.17
3 | MADESETAVKPPAPPLPQMMEGNGNGHEHCSDCENEEDNSYNRGGLSPANDTGAKKKKKKQKKKKEKGSETDSAQDQPVKMNSLPAERIQEIQKAIELFSVGQGPAKTMEEASKRSYQFWDTQPVPKLGEVVNTHGPVEPDKDNIRQEPYTLPQGFTWDALDLGDRGVLKELYTLLNENYVEDDDNMFRFDYSPEFLLWALRPPGWLPQWHCGVRVVSSRKLVGFISAIPANIHIYDTEKKMVEINFLCVHKKLRSKRVAPVLIREITRRVHLEGIFQAVYTAGVVLPKPVGTCRYWHRSLNPRKLIEVKFSHLSRNMTMQRTMKLYRLPETPKTAGLRPMETKDIPVVHQLLTRYLKQFHLTPVMSQEEVEHWFYPQENIIDTFVVENANGEVTDFLSFYTLPSTIMNHPTHKSLKAAYSFYNVHTQTPLLDLMSDALVLAKMKGFDVFNALDLMENKTFLEKLKFGIGDGNLQYYLYNWKCPSMGAEKVGLVLQ [NMT1] | -0.131 | -0.333 | -0.823 | 53.9 | 53.5 | 0.1
4 | MADGDSGSERGGGGGPCGFQPASRGGGEQETQELASKRLDIQNKRFYLDVKQNAKGRFLKIAEVGAGGSKSRLTLSMAVAAEFRDSLGDFIEHYAQLGPSSPEQLAAGAEEGGGPRRALKSEFLVRENRKYYLDLKENQRGRFLRIRQTVNRGGGGFGAGPGPGGLQSGQTIALPAQGLIEFRDALAKLIDDYGGEDDELAGGPGGGAGGPGGGLYGELPEGTSITVDSKRFFFDVGCNKYGVFLRVSEVKPSYRNAITVPFKAWGKFGGAFCRYADEMKEIQERQRDKLYERRGGGSGGGEESEGEEVDED [PURB] | 0.381 | -1.12 | -5.37 | 54.2 | 54.1 | 0.0319
5 | MADGGSERADGRIVKMEVDYSATVDQRLPECAKLAKEGRLQEVIETLLSLEKQTRTASDMVSTSRILVAVVKMCYEAKEWDLLNENIMLLSKRRSQLKQAVAKMVQQCCTYVEEITDLPIKLRLIDTLRMVTEGKIYVEIERARLTKTLATIKEQNGDVKEAASILQELQVETYGSMEKKERVEFILEQMRLCLAVKDYIRTQIISKKINTKFFQEENTEKLKLKYYNLMIQLDQHEGSYLSICKHYRAIYDTPCIQAESEKWQQALKSVVLYVILAPFDNEQSDLVHRISGDKKLEEIPKYKDLLKLFTTMELMRWSTLVEDYGMELRKGSLESPATDVFGSTEEGEKRWKDLKNRVVEHNIRIMAKYYTRITMKRMAQLLDLSVDESEAFLSNLVVNKTIFAKVDRLAGIINFQRPKDPNNLLNDWSQKLNSLMSLVNKTTHLIAKEEMIHNLQ [PSMD12] | 0.0925 | 2.61 | 2.56 | 52.3 | 51.6 | -0.104
6 | MADHVQSLAQLENLCKQLYETTDTTTRLQAEKALVEFTNSPDCLSKCQLLLERGSSSYSQLLAATCLTKLVSRTNNPLPLEQRIDIRNYVLNYLATRPKLATFVTQALIQLYARITKLGWFDCQKDDYVFRNAITDVTRFLQDSVEYCIIGVTILSQLTNEINQADTTHPLTKHRKIASSFRDSSLFDIFTLSCNLLKQASGKNLNLNDESQHGLLMQLLKLTHNCLNFDFIGTSTDESSDDLCTVQIPTSWRSAFLDSSTLQLFFDLYHSIPPSFSPLVLSCLVQIASVRRSLFNNAERAKFLSHLVDGVKRILENPQSLSDPNNYHEFCRLLARLKSNYQLGELVKVENYPEVIRLIANFTVTSLQHWEFAPNSVHYLLSLWQRLAASVPYVKATEPHMLETYTPEVTKAYITSRLESVHIILRDGLEDPLEDTGLVQQQLDQLSTIGRCEYEKTCALLVQLFDQSAQSYQELLQSASASPMDIAVQEGRLTWLVYIIGAVIGGRVSFASTDEQDAMDGELVCRVLQLMNLTDSRLAQAGNEKLELAMLSFFEQFRKIYIGDQVQKSSKLYRRLSEVLGLNDETMVLSVFIGKIITNLKYWGRCEPITSKTLQLLNDLSIGYSSVRKLVKLSAVQFMLNNHTSEHFSFLGINNQSNLTDMRCRTTFYTALGRLLMVDLGEDEDQYEQFMLPLTAAFEAVAQMFSTNSFNEQEAKRTLVGLVRDLRGIAFAFNAKTSFMMLFEWIYPSYMPILQRAIELWYHDPACTTPVLKLMAELVHNRSQRLQFDVSSPNGILLFRETSKMITMYGNRILTLGEVPKDQVYALKLKGISICFSMLKAALSGSYVNFGVFRLYGDDALDNALQTFIKLLLSIPHSDLLDYPKLSQSYYSLLEVLTQDHMNFIASLEPHVIMYILSSISEGLTALDTMVCTGCCSCLDHIVTYLFKQLSRSTKKRTTPLNQESDRFLHIMQQHPEMIQQMLSTVLNIIIFEDCRNQWSMSRPLLGLILLNEKYFSDLRNSIVNSQPPEKQQAMHLCFENLMEGIERNLLTKNRDRFTQNLSAFRREVNDSMKNSTYGVNSNDMMS [XPO7] | -0.0594 | 0.0845 | 0.043 | 52.2 | 52.2 | -0.207
7 | MADKQISLPAKLINGGIAGLIGVTCVFPIDLAKTRLQNQQNGQRVYTSMSDCLIKTVRSEGYFGMYRGAAVNLTLVTPEKAIKLAANDFFRHQLSKDGQKLTLLKEMLAGCGAGTCQVIVTTPMEMLKIQLQDAGRIAAQRKILAAQGQLSAQGGAQPSVEAPAAPRPTATQLTRDLLRSRGIAGLYKGLGATLLRDVPFSVVYFPLFANLNQLGRPASEEKSPFYVSFLAGCVAGSAAAVAVNPCDVVKTRLQSLQRGVNEDTYSGILDCARKILRHEGPSAFLKGAYCRALVIAPLFGIAQVVYFLGIAESLLGLLQDPQA [SLC25A22] | 0.299 | 0.207 | -1.95 | 56.1 | 55.4 | -0.111
8 | MADKTPGGSQKASSKTRSSDVHSSGSSDAHMDASGPSDSDMPSRTRPKSPRKHNYRNESARESLCDSPHQNLSRPLLENKLKAFSIGKMSTAKRTLSKKEQEELKKKEDEKAAAEIYEEFLAAFEGSDGNKVKTFVRGGVVNAAKEEHETDEKRGKIYKPSSRFADQKNPPNQSSNERPPSLLVIETKKPPLKKGEKEKKKSNLELFKEELKQIQEERDERHKTKGRLSRFEPPQSDSDGQRRSMDAPSRRNRSSGVLDDYAPGSHDVGDPSTTNLYLGNINPQMNEEMLCQEFGRFGPLASVKIMWPRTDEERARERNCGFVAFMNRRDAERALKNLNGKMIMSFEMKLGWGKAVPIPPHPIYIPPSMMEHTLPPPPSGLPFNAQPRERLKNPNAPMLPPPKNKEDFEKTLSQAIVKVVIPTERNLLALIHRMIEFVVREGPMFEAMIMNREINNPMFRFLFENQTPAHVYYRWKLYSILQGDSPTKWRTEDFRMFKNGSFWRPPPLNPYLHGMSEEQETEAFVEEPSKKGALKEEQRDKLEEILRGLTPRKNDIGDAMVFCLNNAEAAEEIVDCITESLSILKTPLPKKIARLYLVSDVLYNSSAKVANASYYRKFFETKLCQIFSDLNATYRTIQGHLQSENFKQRVMTCFRAWEDWAIYPEPFLIKLQNIFLGLVNIIEEKETEDVPDDLDGAPIEEELDGAPLEDVDGIPIDATPIDDLDGVPIKSLDDDLDGVPLDATEDSKKNEPIFKVAPSKWEAVDESELEAQAVTTSKWELFDQHEESEEEENQNQEEESEDEEDTQSSKSEEHHLYSNPIKEEMTESKFSKYSEMSEEKRAKLREIELKVMKFQDELESGKRPKKPGQSFQEQVEHYRDKLLQREKEKELERERERDKKDKEKLESRSKDKKEKDECTPTRKERKRRHSTSPSPSRSSSGRRVKSPSPKSERSERSERSHKESSRSRSSHKDSPRDVSKKAKRSPSGSRTPKRSRRSRSRSPKKSGKKSRSQSRSPHRSHKKSKKNKH [U2SURP] | -0.673 | 1.49 | 6.77 | 47.9 | 49.5 | 0.526
9 | MADNLPTEFDVVIIGTGLPESILAAACSRSGQRVLHIDSRSYYGGNWASFSFSGLLSWLKEYQQNNDIGEESTVVWQDLIHETEEAITLRKKDETIQHTEAFCYASQDMEDNVEEIGALQKNPSLGVSNTFTEVLDSALPEESQLSYFNSDEMPAKHTQKSDTEISLEVTDVEESVEKEKYCGDKTCMHTVSDKDGDKDESKSTVEDKADEPIRNRITYSQIVKEGRRFNIDLVSKLLYSQGLLIDLLIKSDVSRYVEFKNVTRILAFREGKVEQVPCSRADVFNSKELTMVEKRMLMKFLTFCLEYEQHPDEYQAFRQCSFSEYLKTKKLTPNLQHFVLHSIAMTSESSCTTIDGLNATKNFLQCLGRFGNTPFLFPLYGQGEIPQGFCRMCAVFGGIYCLRHKVQCFVVDKESGRCKAIIDHFGQRINAKYFIVEDSYLSEETCSNVQYKQISRAVLITDQSILKTDLDQQTSILIVPPAEPGACAVRVTELCSSTMTCMKDTYLVHLTCSSSKTAREDLESVVKKLFTPYTETEINEEELTKPRLLWALYFNMRDSSGISRSSYNGLPSNVYVCSGPDCGLGNEHAVKQAETLFQEIFPTEEFCPPPPNPEDIIFDGDDKQPEAPGTNNVVMAKLESSEESKNLESPEKHLQN [CHML] | -0.076 | -0.83 | -1.67 | 54 | 53.7 | -0.178
